Values belong to the binder of their own block, whether it stands above or below them.
Key:
BCMA (BCMW37.DB.001) = target: T1, BCMA (BCMW37.DB.001) (UniProt Q02223 1-54, limits assumed); experiment: SPR, BCMA antigen BCMW37.DB.001
T1 construct: The SPR antigen itself is named only by its batch label
T1 sequence (looked up): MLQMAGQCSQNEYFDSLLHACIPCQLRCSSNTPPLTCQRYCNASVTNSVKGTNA

[1] = target: CD3 on human donor Pan T cells (human); experiment: cell-based or functional assay
[2] = target: T2, BCMA on H929-Fluc-GFP cells (UniProt Q02223 1-184); experiment: cell-based or functional assay
T2 sequence (looked up): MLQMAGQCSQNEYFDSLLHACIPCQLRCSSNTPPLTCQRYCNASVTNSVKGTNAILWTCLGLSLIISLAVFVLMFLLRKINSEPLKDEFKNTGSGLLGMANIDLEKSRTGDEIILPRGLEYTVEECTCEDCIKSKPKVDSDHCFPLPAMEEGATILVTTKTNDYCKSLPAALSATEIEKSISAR

CD3W220.001 = experiment: SPR, CD3 antigen CD3W220.001

Chain of CD3 on human donor Pan T cells (human) (chain, as listed by the source): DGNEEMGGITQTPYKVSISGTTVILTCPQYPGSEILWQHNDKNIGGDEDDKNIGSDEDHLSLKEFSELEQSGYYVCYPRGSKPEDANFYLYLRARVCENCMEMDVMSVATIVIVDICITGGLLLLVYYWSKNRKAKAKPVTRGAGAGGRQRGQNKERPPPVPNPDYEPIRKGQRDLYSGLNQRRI

- Kd (BCMA (BCMW37.DB.001)): 2.74 nM
- koff (BCMA (BCMW37.DB.001)): 0.039 s⁻¹
- kon (BCMA (BCMW37.DB.001)): 1.42e+07 M⁻¹ s⁻¹
- Bottom of fit, CD4/CD25+ T cell activation [1]: 8.12
- Bottom of fit, CD8/CD25+ T cell activation [1]: 0.941
- EC50 (nM), CD4/CD25+ T cell activation [1]: 0.0627 nM
- EC50 (nM), CD8/CD25+ T cell activation [1]: 0.117 nM
- Top of fit (Cmax), CD4/CD25+ T cell activation [1]: 80.9
- Top of fit (Cmax), CD8/CD25+ T cell activation [1]: 73.5
- Bottom of fit, % Cytolysis [2]: 15.4%
- EC50 (nM), % Cytolysis [2]: 0.0489 nM
- Top of fit (Cmax), % Cytolysis [2]: 93.4%
- Kd (CD3W220.001): 502 nM
- koff (CD3W220.001): 0.105 s⁻¹
- kon (CD3W220.001): 210000 M⁻¹ s⁻¹
B1: BCMB1052 (bispecific antibody, human IgG1, kappa, L234A L235A)
light: DIVMTQSQKFMSTTVGDRVSITCKASQNVGTAVAWYQQKPGQSPKLLIYSASNRYTGVPDRFTGTGSGTDFTLTIINVQSEDLADYFCQQYGSSPWTFGGGTKLEIKRTVAAPSVFIFPPSDEQLKSGTASVVCLLNNFYPREAKVQWKVDNALQSGNSQESVTEQDSKDSTYSLSSTLTLSKADYEKHKVYACEVTHQGLSSPVTKSFNRGEC
heavy: QVQLQQSGAELVKPGASVKLSCKASGYTFTNNVMHWVRQKPGQGLEWIGYILPYNDGTKYNEKFKGKATLTSDKSSSTAYMELSSLTSEDSAVYYCARYDYDGYFDYWGQGTTLTVSSASTKGPSVFPLAPSSKSTSGGTAALGCLVKDYFPEPVTVSWNSGALTSGVHTFPAVLQSSGLYSLSSVVTVPSSSLGTQTYICNVNHKPSNTKVDKKVEPKSCDKTHTCPPCPAPEAAGGPSVFLFPPKPKDTLMISRTPEVTCVVVSVSHEDPEVKFNWYVDGVEVHNAKTKPREEQYNSTYRVVSVLTVLHQDWLNGKEYKCKVSNKALPAPIEKTISKAKGQPREPQVYTLPPSREEMTKNQVSLSCAVKGFYPSDIAVEWESNGQPENNYKTTPPVLDSDGSFFLVSKLTVDKSRWQQGNVFSCSVMHEALHNRFTQKSLSLSPGK
chain: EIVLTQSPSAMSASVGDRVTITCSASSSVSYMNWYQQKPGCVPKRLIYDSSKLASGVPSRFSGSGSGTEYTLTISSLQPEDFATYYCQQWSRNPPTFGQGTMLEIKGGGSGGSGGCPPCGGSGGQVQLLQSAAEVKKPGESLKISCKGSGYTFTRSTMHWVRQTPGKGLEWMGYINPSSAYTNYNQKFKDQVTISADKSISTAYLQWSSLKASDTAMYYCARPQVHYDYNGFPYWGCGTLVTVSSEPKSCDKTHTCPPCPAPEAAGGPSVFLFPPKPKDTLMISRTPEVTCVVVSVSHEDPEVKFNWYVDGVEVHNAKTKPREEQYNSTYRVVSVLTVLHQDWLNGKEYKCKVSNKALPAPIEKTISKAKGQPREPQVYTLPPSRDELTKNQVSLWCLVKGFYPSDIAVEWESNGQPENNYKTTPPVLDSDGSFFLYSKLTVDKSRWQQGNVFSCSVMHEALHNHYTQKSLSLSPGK
notes: Murine anti-BCMA Fab × stapled anti-CD3 scFv-Fc, knob-in-hole Fc; also called BCMB1052.001; BCMB749 × Cris7b spFv

- Kd (BCMA (BCMW37.DB.001)): 1.77 nM
- koff (BCMA (BCMW37.DB.001)): 0.0223 s⁻¹
- kon (BCMA (BCMW37.DB.001)): 1.26e+07 M⁻¹ s⁻¹
- Bottom of fit, CD4/CD25+ T cell activation [1]: 7.46
- Bottom of fit, CD8/CD25+ T cell activation [1]: 0.97
- EC50 (nM), CD4/CD25+ T cell activation [1]: 0.0447 nM
- EC50 (nM), CD8/CD25+ T cell activation [1]: 0.0859 nM
- Top of fit (Cmax), CD4/CD25+ T cell activation [1]: 87.4
- Top of fit (Cmax), CD8/CD25+ T cell activation [1]: 81.2
- Bottom of fit, % Cytolysis [2]: 16.1%
- EC50 (nM), % Cytolysis [2]: 0.0301 nM
- Top of fit (Cmax), % Cytolysis [2]: 93.2%
- Kd (CD3W220.001): 746 nM
- koff (CD3W220.001): 0.199 s⁻¹
- kon (CD3W220.001): 267000 M⁻¹ s⁻¹
B2: BCMB1055 (bispecific antibody, human IgG1, kappa, L234A L235A)
light: DIQMTQSPSSVSASVGDRVTITCKASQNVGTAVAWYQQKPGQSPKLLIYSASNRYTGVPSRFSGSGSGTDFTLTISSLQPEDFATYFCQQYGSSPWTFGGGTKVEIKRTVAAPSVFIFPPSDEQLKSGTASVVCLLNNFYPREAKVQWKVDNALQSGNSQESVTEQDSKDSTYSLSSTLTLSKADYEKHKVYACEVTHQGLSSPVTKSFNRGEC
heavy: QVQLVQSGAEVKKPGASVKVSCKASGYTFTNNVMHWVRQAPGQGLEWMGYILPYNDGTKYNQKFQGRVTLTSDKSASTAYMELSSLRSEDTAVYYCARYDYDGYFDYWGQGTTVTVSSASTKGPSVFPLAPSSKSTSGGTAALGCLVKDYFPEPVTVSWNSGALTSGVHTFPAVLQSSGLYSLSSVVTVPSSSLGTQTYICNVNHKPSNTKVDKKVEPKSCDKTHTCPPCPAPEAAGGPSVFLFPPKPKDTLMISRTPEVTCVVVSVSHEDPEVKFNWYVDGVEVHNAKTKPREEQYNSTYRVVSVLTVLHQDWLNGKEYKCKVSNKALPAPIEKTISKAKGQPREPQVYTLPPSREEMTKNQVSLSCAVKGFYPSDIAVEWESNGQPENNYKTTPPVLDSDGSFFLVSKLTVDKSRWQQGNVFSCSVMHEALHNRFTQKSLSLSPGK
chain: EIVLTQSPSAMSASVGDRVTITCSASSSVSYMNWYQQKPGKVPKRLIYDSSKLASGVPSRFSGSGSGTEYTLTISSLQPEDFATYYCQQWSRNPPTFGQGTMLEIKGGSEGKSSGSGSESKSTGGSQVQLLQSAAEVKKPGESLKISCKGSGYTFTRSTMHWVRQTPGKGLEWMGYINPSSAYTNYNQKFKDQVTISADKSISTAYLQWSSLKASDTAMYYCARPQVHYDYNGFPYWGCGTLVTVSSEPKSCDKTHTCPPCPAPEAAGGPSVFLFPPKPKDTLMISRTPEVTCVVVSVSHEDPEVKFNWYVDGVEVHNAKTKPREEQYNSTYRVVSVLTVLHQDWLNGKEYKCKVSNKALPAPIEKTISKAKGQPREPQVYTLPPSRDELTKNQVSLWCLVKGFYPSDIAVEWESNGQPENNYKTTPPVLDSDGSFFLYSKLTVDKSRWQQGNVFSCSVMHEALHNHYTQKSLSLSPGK
notes: Humanized anti-BCMA Fab × anti-CD3 scFv-Fc, knob-in-hole Fc; also called BCMB1055.001; BCMB749h × Cris7b scFv

- Kd (BCMA (BCMW37.DB.001)): 1.75 nM
- koff (BCMA (BCMW37.DB.001)): 0.021 s⁻¹
- kon (BCMA (BCMW37.DB.001)): 1.2e+07 M⁻¹ s⁻¹
- Bottom of fit, CD4/CD25+ T cell activation [1]: 8.05
- Bottom of fit, CD8/CD25+ T cell activation [1]: 1.32
- EC50 (nM), CD4/CD25+ T cell activation [1]: 0.0222 nM
- EC50 (nM), CD8/CD25+ T cell activation [1]: 0.0343 nM
- Top of fit (Cmax), CD4/CD25+ T cell activation [1]: 86.4
- Top of fit (Cmax), CD8/CD25+ T cell activation [1]: 80.1
- Bottom of fit, % Cytolysis [2]: 17%
- EC50 (nM), % Cytolysis [2]: 0.0141 nM
- Top of fit (Cmax), % Cytolysis [2]: 94.6%
- Kd (CD3W220.001): 657 nM
- koff (CD3W220.001): 0.121 s⁻¹
- kon (CD3W220.001): 184000 M⁻¹ s⁻¹
B3: BCMB1050 (bispecific antibody, human IgG1, kappa, L234A L235A)
light: B2 light
heavy: B2 heavy
chain: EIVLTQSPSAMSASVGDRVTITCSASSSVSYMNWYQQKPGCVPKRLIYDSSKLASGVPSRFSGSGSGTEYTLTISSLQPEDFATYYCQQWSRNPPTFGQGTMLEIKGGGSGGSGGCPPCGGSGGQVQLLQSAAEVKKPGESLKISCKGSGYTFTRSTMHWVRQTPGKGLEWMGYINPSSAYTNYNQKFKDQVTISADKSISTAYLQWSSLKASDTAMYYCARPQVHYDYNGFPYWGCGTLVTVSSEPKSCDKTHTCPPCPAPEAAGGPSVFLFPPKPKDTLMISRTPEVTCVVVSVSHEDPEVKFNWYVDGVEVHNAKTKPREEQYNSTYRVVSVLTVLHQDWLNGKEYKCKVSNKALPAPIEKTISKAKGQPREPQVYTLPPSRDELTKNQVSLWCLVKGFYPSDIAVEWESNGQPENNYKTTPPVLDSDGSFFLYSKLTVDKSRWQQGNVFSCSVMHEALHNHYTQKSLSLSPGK
notes: Humanized anti-BCMA Fab × stapled anti-CD3 scFv-Fc, knob-in-hole Fc; also called BCMB1050.001; BCMB749h × Cris7b spFv

— patent US20250320304A1 (Janssen / Centocor, published 2025)
